± gives the uncertainty stated by the source.
Test: self-splicing fitness, log relative to wild type (ln ratio); higher = more splicing; Tetrahymena group I intron in knt gene, E. coli kanamycin selection, DiMSum; sequences stand for … in CUCUCU…GGAGGGAAAAGUUAUCAGGCAUGCACCUGGUAGCUAGUCUUUAAACCAAUAGAUUGCAUCGGUUUAAAAGGCAAGACCGUCAAAUUGCGGGAAAGGGGUCAACAGCCGUUCAGUACCAAGUCUCAGGGGAAACUUUGAGAUGGCCUUGCAAAGGGUAUGGUAAUAAGCUGACGGACAUGGUCCUAACCACGCAGCCAAGUCCUAAGUCAACAGAUCUUCUGUUGAUAUGGAUGCAGUUCACAGACUAAAUGUCGGUCGGGGAAGAUGUAUUCUUCUCAUAAGAUAUAGUCGGACCUCUCCUUAAUGGGAGCUAGCGGAUGAAGUGAUGCAACACUGGAGCCGCUGGGAACUAAUUUGUAUGCGAAAGUAUAUUGAUUAGUUUUGGAGUACUCGUGGUCG
In short: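 DiMSum derived fitness as the error-weighted combination of fold changes across replicates, kanamycin versus no kanamycin, normalised to wild type. E. coli BL21(DE3) held the library, which randomised all eight P1ex-region intron nucleotides within the knt kanamycin-resistance gene on pET-22b(+). Six replicate transformations grew overnight at 37°C or 30°C on LB agar with or without 25 μg/mL kanamycin, also containing 100 μg/mL carbenicillin, 50 μM IPTG and 0.2% rhamnose, and pooled colonies were amplicon-sequenced on an Illumina HiSeq 2500.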

Row | Sequence | self-splicing fitness (ln) (30 °C) | self-splicing fitness (ln) (37 °C)
1 | GGCUAGCAAUAUUACGUCUA | -0.349 ± 0.13 | -0.105 ± 0.11
2 | GUGGAGCAAUAUUACGGUUU | -3.22 ± 0.14 | -1.65 ± 0.15
3 | UAUAAGCAAUAUUACGUCAC | -2.89 ± 0.33 | -1.38 ± 0.32
4 | ACGCAGCAAUAUUACGAAGA | – | -1.43 ± 0.26
5 | GCUAAGCAAUAUUACGACAC | -0.804 ± 0.074 | 0.369 ± 0.11
6 | CUGGAGCAAUAUUACGAUGU | -3.26 ± 0.16 | -2.97 ± 0.23
7 | CAUUAGCAAUAUUACGUAGG | -0.646 ± 0.08 | -0.199 ± 0.11
8 | UACCAGCAAUAUUACGCGUA | -1.9 ± 0.074 | -1.67 ± 0.093
9 | GGAAAGCAAUAUUACGAUAU | -0.885 ± 0.076 | -0.58 ± 0.1
10 | AGUUAGCAAUAUUACGUACG | -0.205 ± 0.18 | 0.0821 ± 0.19
11 | CCUGAGCAAUAUUACGUGGG | -3.25 ± 0.15 | -2.85 ± 0.2
12 | UUUUAGCAAUAUUACGGCAG | -0.809 ± 0.11 | -0.727 ± 0.15
13 | CCGUAGCAAUAUUACGUUUA | -3.43 ± 0.44 | -3.04 ± 0.4
14 | UAUUAGCAAUAUUACGGUAA | -2.24 ± 0.26 | -1.54 ± 0.23
15 | UACCAGCAAUAUUACGGGGA | -1.24 ± 0.083 | -0.746 ± 0.083
16 | CCACAGCAAUAUUACGGUAC | -4.19 ± 0.19 | -2.55 ± 0.18
17 | GGUUAGCAAUAUUACGUUCA | 0.228 ± 0.14 | -0.557 ± 0.13
18 | GGACAGCAAUAUUACGUAAG | -0.165 ± 0.061 | 0.19 ± 0.079
19 | GUUUAGCAAUAUUACGUACC | -1.45 ± 0.48 | –
20 | CGGCAGCAAUAUUACGAUCA | -1.08 ± 0.11 | -0.194 ± 0.11
21 | GCACAGCAAUAUUACGUUAC | -1.14 ± 0.074 | -0.837 ± 0.087
22 | CGGUAGCAAUAUUACGUAGG | -0.647 ± 0.051 | 0.647 ± 0.08
23 | AUCAAGCAAUAUUACGUCCG | -2.1 ± 0.14 | -1.14 ± 0.16
24 | UUGAAGCAAUAUUACGGCCC | -3.04 ± 0.4 | -0.425 ± 0.2
25 | UUCUAGCAAUAUUACGCUGA | -1.04 ± 0.31 | -0.752 ± 0.25

Row | Sequence | self-splicing fitness (ln) (30 °C) | self-splicing fitness (ln) (37 °C)
26 | UUGUAGCAAUAUUACGGGCA | -1.8 ± 0.21 | -0.65 ± 0.2
27 | CCACAGCAAUAUUACGCGGA | -3.84 ± 0.21 | -1.01 ± 0.11
28 | CUAAAGCAAUAUUACGAGGG | -2.22 ± 0.094 | -2.22 ± 0.16
29 | AAACAGCAAUAUUACGGCUU | -0.312 ± 0.052 | 0.129 ± 0.07
30 | UUCUAGCAAUAUUACGUGUG | -0.91 ± 0.06 | -0.542 ± 0.082
31 | ACCGAGCAAUAUUACGGUAU | -3.76 ± 0.2 | -1.81 ± 0.14
32 | CGUUAGCAAUAUUACGACAG | 0.473 ± 0.14 | -0.134 ± 0.15
33 | CUCCAGCAAUAUUACGUCGG | -3.14 ± 0.15 | -2.36 ± 0.15
34 | GCUCAGCAAUAUUACGCCUA | -0.718 ± 0.23 | -0.514 ± 0.22
35 | GAUAAGCAAUAUUACGGGGG | -3.65 ± 0.26 | -3.04 ± 0.28
36 | UCAUAGCAAUAUUACGGGAG | -3.39 ± 0.26 | -3.06 ± 0.29
37 | UCCGAGCAAUAUUACGUUGA | -2.17 ± 0.097 | -0.915 ± 0.087
38 | UCGGAGCAAUAUUACGCGCA | -0.975 ± 0.23 | –
39 | UUUAAGCAAUAUUACGAGGU | -3.65 ± 0.22 | -2.04 ± 0.15
40 | UUUCAGCAAUAUUACGCCGU | -3.39 ± 0.36 | -1.45 ± 0.26
41 | CGCGAGCAAUAUUACGGGCC | -2.71 ± 0.27 | –
42 | CAAAAGCAAUAUUACGGGAC | -3.76 ± 0.35 | -1.71 ± 0.17
43 | UAUUAGCAAUAUUACGGAUU | -1.74 ± 0.12 | -0.699 ± 0.11
44 | GCAAAGCAAUAUUACGCGGG | -3.11 ± 0.21 | -2.41 ± 0.21
45 | UUUCAGCAAUAUUACGCAAG | -1.27 ± 0.11 | -0.106 ± 0.13
46 | CAUAAGCAAUAUUACGGGAC | -1.54 ± 0.18 | -2.23 ± 0.27
47 | UCUGAGCAAUAUUACGUCAG | -1.48 ± 0.096 | -0.513 ± 0.11
48 | CCCAAGCAAUAUUACGGUAA | -2.25 ± 0.14 | -1.4 ± 0.16
49 | UUGUAGCAAUAUUACGCGAG | -1.17 ± 0.11 | -0.735 ± 0.099
50 | GAGAAGCAAUAUUACGGUUA | -1.13 ± 0.12 | -0.315 ± 0.13

Row | Sequence | self-splicing fitness (ln) (30 °C) | self-splicing fitness (ln) (37 °C)
51 | CGAGAGCAAUAUUACGUUGG | -3.78 ± 0.3 | -2.48 ± 0.22
52 | ACCGAGCAAUAUUACGCCUG | -3.61 ± 0.24 | -2.44 ± 0.17
53 | CUUAAGCAAUAUUACGCCUC | -1.85 ± 0.22 | –
54 | UGAAAGCAAUAUUACGCCUG | -0.546 ± 0.11 | -0.244 ± 0.12
55 | AAGCAGCAAUAUUACGCAGU | -3.36 ± 0.23 | -1.52 ± 0.13
56 | GUCCAGCAAUAUUACGCCAG | -3.38 ± 0.23 | -1.15 ± 0.2
57 | GAUUAGCAAUAUUACGGGCA | -1.13 ± 0.13 | -0.685 ± 0.12
58 | AUAUAGCAAUAUUACGAUUG | -2.96 ± 0.18 | -3.2 ± 0.4
59 | UCGGAGCAAUAUUACGGGGA | -1.76 ± 0.2 | -1.13 ± 0.19
60 | CACCAGCAAUAUUACGCUUU | -3.8 ± 0.14 | -1.94 ± 0.093
61 | CCUUAGCAAUAUUACGGCGA | -4.24 ± 0.39 | -1.96 ± 0.2
62 | GCUGAGCAAUAUUACGCGAA | – | -2.91 ± 0.37
63 | ACGAAGCAAUAUUACGCAUU | -3.42 ± 0.12 | -1.95 ± 0.096
64 | AACCAGCAAUAUUACGUUAA | -1.83 ± 0.086 | -1.26 ± 0.085
65 | GACAAGCAAUAUUACGAUGC | -1.44 ± 0.091 | -0.732 ± 0.11
66 | AAGAAGCAAUAUUACGAUGU | -1.29 ± 0.086 | -1.01 ± 0.1
67 | CUACAGCAAUAUUACGACCG | 0.86 ± 0.11 | -0.315 ± 0.14
68 | GACCAGCAAUAUUACGGCAC | -0.0527 ± 0.076 | 0.491 ± 0.11
69 | AGGAAGCAAUAUUACGAAUU | -2.58 ± 0.13 | -1.45 ± 0.15
70 | UCACAGCAAUAUUACGCGGC | -3.63 ± 0.23 | -2.5 ± 0.28
71 | ACAAAGCAAUAUUACGUUCU | -0.539 ± 0.055 | -0.567 ± 0.065
72 | AGGAAGCAAUAUUACGAAUC | -2.86 ± 0.25 | –
73 | CAAAAGCAAUAUUACGUUUC | -3.1 ± 0.28 | -2.76 ± 0.2
74 | GGGUAGCAAUAUUACGGAUA | -1.74 ± 0.25 | -1.08 ± 0.29
75 | AGGGAGCAAUAUUACGGUUC | – | -1.7 ± 0.42

Row | Sequence | self-splicing fitness (ln) (30 °C) | self-splicing fitness (ln) (37 °C)
76 | CAACAGCAAUAUUACGGAGU | -3.71 ± 0.17 | -1.22 ± 0.12
77 | GUUAAGCAAUAUUACGUUCU | -1.03 ± 0.085 | -0.445 ± 0.091
78 | ACCUAGCAAUAUUACGGGUG | -1.47 ± 0.071 | -1.1 ± 0.087
79 | AAAGAGCAAUAUUACGGUGG | -2.85 ± 0.15 | -2.14 ± 0.25
80 | AAGCAGCAAUAUUACGGUAU | -1.55 ± 0.055 | -1.13 ± 0.078
81 | AUACAGCAAUAUUACGUGGG | -3.45 ± 0.15 | -1.53 ± 0.12
82 | UAAGAGCAAUAUUACGGUCA | -1.77 ± 0.18 | -2.52 ± 0.17
83 | GAAAAGCAAUAUUACGGUGU | -2.55 ± 0.096 | -0.927 ± 0.11
84 | CUUAAGCAAUAUUACGUUGU | -3.89 ± 0.2 | -1.64 ± 0.15
85 | UAGCAGCAAUAUUACGAGCU | -1.5 ± 0.13 | -0.893 ± 0.14
86 | AAUGAGCAAUAUUACGAUGA | -2.16 ± 0.12 | -1.77 ± 0.15
87 | UCUCAGCAAUAUUACGACCU | -1.84 ± 0.18 | -0.921 ± 0.22
88 | UGGCAGCAAUAUUACGGGAA | -2.17 ± 0.13 | -0.784 ± 0.1
89 | AUCAAGCAAUAUUACGAUCA | -1.14 ± 0.1 | -0.582 ± 0.11
90 | UGACAGCAAUAUUACGUUUU | -2.76 ± 0.11 | -1.43 ± 0.098
91 | AUCAAGCAAUAUUACGAGUA | -1.56 ± 0.11 | -0.436 ± 0.1
92 | AGCAAGCAAUAUUACGCGCA | -0.742 ± 0.07 | 0.548 ± 0.11
93 | AUGCAGCAAUAUUACGCGCA | -1.91 ± 0.14 | -1.39 ± 0.099
94 | AUAUAGCAAUAUUACGGGGA | -2.21 ± 0.32 | -1.72 ± 0.41
95 | CUUAAGCAAUAUUACGUCAG | -0.948 ± 0.084 | -0.564 ± 0.1
96 | CACGAGCAAUAUUACGCGCU | -4.22 ± 0.21 | -2.01 ± 0.19
97 | CUGCAGCAAUAUUACGAUUU | -4.06 ± 0.17 | -1.7 ± 0.14
